Experimental findings from paper PMC12273918 (2025) are described below.

One experiment has as its target CD163 42-1045 (Homo sapiens, UniProt Q86VB7). Description: SPR. Background: In SPR one partner is held on a chip, and binding of the other changes the refractive index at the surface.
In the next experiment the target is T1, CD163 D1-D5 (Homo sapiens, UniProt Q86VB7).
T1 chain: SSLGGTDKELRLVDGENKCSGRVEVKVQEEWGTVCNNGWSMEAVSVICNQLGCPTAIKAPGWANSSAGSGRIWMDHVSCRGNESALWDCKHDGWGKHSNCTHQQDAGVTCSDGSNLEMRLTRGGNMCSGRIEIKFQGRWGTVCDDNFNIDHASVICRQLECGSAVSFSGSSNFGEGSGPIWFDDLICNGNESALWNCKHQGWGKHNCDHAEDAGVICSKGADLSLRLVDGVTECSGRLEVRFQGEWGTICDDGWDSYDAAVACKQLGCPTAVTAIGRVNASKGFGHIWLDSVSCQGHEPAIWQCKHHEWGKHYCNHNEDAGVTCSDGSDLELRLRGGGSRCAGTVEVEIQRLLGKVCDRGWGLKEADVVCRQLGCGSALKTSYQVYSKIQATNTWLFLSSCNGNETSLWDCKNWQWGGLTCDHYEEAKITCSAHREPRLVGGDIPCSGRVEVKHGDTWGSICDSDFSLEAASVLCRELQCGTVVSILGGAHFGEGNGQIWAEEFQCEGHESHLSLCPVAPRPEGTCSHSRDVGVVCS
Briefly: SPR.

B1: Haptoglobin(1-1)-hemoglobin complex (protein)
chain 1: VDSGNDVTDIADDGCPKPPEIAHGYVEHSVRYQCKNYYKLRTEGDGVYTLNDKKQWINKAVGDKLPECEADDGCPKPPEIAHGYVEHSVRYQCKNYYKLRTEGDGVYTLNNEKQWINKAVGDKLPECEAVCGKPKNPANPVQRILGGHLDAKGSFPWQAKMVSHHNLTTGATLINEQWLLTTAKNLFLNHSENATAKDIAPTLTLYVGKKQLVEIEKVVLHPNYSQVDIGLIKLKQKVSVNERVMPICLPSKDYAEVGRVGYVSGWGRNANFKFTDHLKYVMLPVADQDQCIRHYEGSTVPEKKTPKSPVGVQPILNEHTFCAGMSKYQEDTCYGDAGSAFAVHDLEEDTWYATGILSFDKSCAVAEYGVYVKVTSIQDWVQKTIAEN
chain 2: not shown
chain 3: not shown
modifications: Ca2+ (5 mM CaCl2), biotinylated Hp(1-1) immobilized
The Kd is the free concentration of one partner at which half of the binding sites on the other are occupied at equilibrium, for simple one-to-one binding. Higher therefore signals weaker binding. Turning to B1, the Kd in the experiment with CD163 42-1045 is around 72 nM; with CD163 D1-D5 it was around 684 nM.
